The record followed here is PMC7656253, “Recovery of motor function of chronic spinal cord injury by extracellular pyruvate kinase isoform M2 and the underlying mechanism” (Scientific Reports, 2020).

For this experiment, the target named is T1, Recombinant human valosin-containing protein (VCP) (human, UniProt P55072 1-806).
T1 construct: valosin-containing protein (VCP), human, recombinant; Commercial protein; The supplier is printed as 'Abnoba', probably Abnova; No catalogue number or tag is printed; also called recombinant VCP; source: bought: Abnoba, Taipei, Taiwan
Put plainly: co-IP; recombinant mouse PKM2 (100 pmol) and recombinant human VCP (10 pmol) coincubated 1 h at 25 °C; precipitated with rabbit anti-PKM2 antibody or normal mouse IgG cross-linked to Dynabeads Protein G, 2 h at 25 °C; Western blot for PKM2 and VCP. The conditions noted are these: both partners purified. (In general: A western blot detects proteins with antibodies after separation by electrophoresis.)

T1 sequence (P55072 whole entry): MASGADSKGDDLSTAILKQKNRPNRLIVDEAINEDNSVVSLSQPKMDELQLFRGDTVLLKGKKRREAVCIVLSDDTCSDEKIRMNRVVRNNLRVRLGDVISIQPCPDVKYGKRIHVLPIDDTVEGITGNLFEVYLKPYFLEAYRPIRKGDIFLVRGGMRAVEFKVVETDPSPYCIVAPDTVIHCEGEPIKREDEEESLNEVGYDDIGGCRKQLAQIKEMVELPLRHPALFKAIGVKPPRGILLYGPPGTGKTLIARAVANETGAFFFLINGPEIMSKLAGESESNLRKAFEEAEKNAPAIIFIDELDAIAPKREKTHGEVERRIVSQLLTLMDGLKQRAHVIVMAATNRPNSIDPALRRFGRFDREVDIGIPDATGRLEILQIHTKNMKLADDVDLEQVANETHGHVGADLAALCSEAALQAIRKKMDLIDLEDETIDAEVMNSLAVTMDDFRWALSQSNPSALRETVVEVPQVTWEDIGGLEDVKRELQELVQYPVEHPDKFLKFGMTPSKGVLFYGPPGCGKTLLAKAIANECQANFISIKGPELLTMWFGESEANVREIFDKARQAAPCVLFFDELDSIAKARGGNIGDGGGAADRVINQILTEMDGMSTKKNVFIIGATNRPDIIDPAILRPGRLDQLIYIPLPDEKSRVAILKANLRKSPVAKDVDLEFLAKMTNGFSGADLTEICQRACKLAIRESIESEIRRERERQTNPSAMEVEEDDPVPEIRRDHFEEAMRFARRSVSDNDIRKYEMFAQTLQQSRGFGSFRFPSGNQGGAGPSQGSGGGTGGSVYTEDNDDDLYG

B1: Recombinant mouse pyruvate kinase isoform M2 (PKM2) (enzyme)
chain: not shown
notes: pyruvate kinase isoform M2 (PKM2), mouse, recombinant; Commercial protein; No catalogue number, expression host or tag is printed; also called recombinant PKM2; extracellular PKM2; source: bought: Abcam
B1: the binding result is “binds”.
